{
  "source": "the DeepSol protein solubility set",
  "data": [
    {"assay": "soluble on expression in E. coli; label from the status in PepcDB or PDB records", "values": [
      {"sequence": "MDSYTSSDEDASRKENEGLNMLNASPEPMEEDDPEEQAEQEEETSRMARPIRSMRKRETTSGESMGDEDEDLEDEEDEDEEAEAREHHESGAHDTSFSNPLSNVDNLIHVGTEYQAIIQPTAEQLEKEPCRDQQIWAFPDEMNENRLTEYISEATGRYQLPIDRALFILNKQSNDFDAAMVQAMRRKEIHDDWTAEEISLFSTCFFHFGKRFKKIHAAMPQRSLSSIIQYYYNTKKVQNYKTMINVHLNETDTYDELFKEVNHLERVPSGYCENCNAKSDLLILNRVMSRHECKPCILYFRLMRVPRPASLRALTKRRQRVLCPEYMKIYVYGYLELMEPANGKAIKRLGIGKEKEEDDDIMVVDDCLLRKPSGPYIVEQSIEADPIDENTCRMTRCFDTPAALALIDNIKRKHHMCVPLVWRVKQTKCMEENEILNEEARQQMFRATMTYSRVPKGEIANWKKDMMALKGRFERFTPELDTTATNGNRSGKVRINYGWSPEEKKNAIRCFHWYKDNFELIAELMATKTVEQIKKFYMDNEKLILESIDTYRAELKSKLGK", "soluble on expression in E. coli": "not soluble"},
      {"sequence": "MGSDKIHHHHHHMRVDHSTQPVAVLQEPSIVLVIQGVKRAYIGKDIFKFQQGQCLFISIAIPFDCDTLVEREPMLAIAIKFEPQMMAELATKMDKEHRPLIEDFDNKEIKLSCGLNIIEMNSVISDVALRLLNLLRSKQDTAILGEQVKRELIYRVLQAGGSDFIQNLSAIMSRSGVIYTICEIIQRDYYRNLTVQELAKQAGMSVSLFHQAFKKVTNYSPLQYIKITRLHKARDLILNNQMGVAEAAYEVGYVSASQFSREFKRLFGVPPKLSTN", "soluble on expression in E. coli": "not soluble"},
      {"sequence": "MHDNTIKSISKDYFDYLQTESKFIPLENETIEFYSPIVDYFGDSISVNISFSGDRYKLTDHGETLWNMEQLGIDLTSNKKQKKYQLLNNIVQNYSLVIENKHINFYTNRINLSQAIHDYVLAISEISYLGILKKENIKSLFKDEVMQYFLSNRKIYPNIFPEFKVEGKSKLIHSFEAVFPGEATEYVKTIKRIDKNNAKNVLFDWNDVEIHRNKNFDSNARLNIITEQQDDISEAVSTMLSQYNVEVFSFENKKQLEEKFSNV", "soluble on expression in E. coli": "not soluble"},
      {"sequence": "MSLSNLTSQLHNFFSAQLAGVSDEVRVSIRTAPNLLPPCEQPLLSMSNNSRLWGNVNVLARCGNDKRYLQVNVQATGNYVVAAMPIARGGKLEAGNVKLKRGRLDTLPPRTVLDINQLVDAISLRDLSPDQPIQLTQFRQAWRVKAGQRVNVIASGDGFSANAEGQALNNAAVAQNARVRMVSGQVVSGVVDADGNILINLEGHHHHHH", "soluble on expression in E. coli": "soluble"},
      {"sequence": "MSSLADLINLDLSDSTDQIIAEYIWIGGSGLDMRSKARTLPGPVTDPSQLPKWNYDGSSTGQAPGDDSEVIIYPQAIFKDPFRRGNNILVMCDAYTPAGEPIPTNKRHAAAKIFEDPSVVAEETWYGIEQEYTLLQKDIKWPVGWPVGGFPGPQGPYYCGVGADKAFGRDIVDSHYKACLYAGINVSGTNGEVMPGQWEFQVGPTVGIAAADQVWVARYILERITELAGVVLSLDPKPIPGDWNGAGAHTNYSTKSMREDGGYEVIKKAIEKLGLRHKEHIAAYGEGNERRLTGKHETADINTFLWGVANRGASIRVGRDTEQAGKGYFEDRRPASNMDPYTVTSMIAESTILWKP", "soluble on expression in E. coli": "soluble"},
      {"sequence": "MSLNILIIAFEGIEGSGKTSHLEATKKYLEKEGYGVVTFGLQMSKLIGDRIAQVKRNIIFERRTLFLAYVTDLADQIENYVKPSIDSGFIALADGYTLTLTSWGLTRGLEKEWIDDVLSMLPKPSISLPLISTPDEIVRRIIKKRGYLDPLETGIDICIKEDTFEAYIDYINRFQEALMSISSRENIIYTDKEFDEVQKEIVRRIDNITEGHHHHHH", "soluble on expression in E. coli": "soluble"},
      {"sequence": "GYDGVRIGQGYDIHQIRVGPPEDIVADTTADTAANTADPNKQSFKRLTIGGVPVETISVLSHSDGDVIFHALVDALLGGMSCSDLGTLFPDGSPKYKNKNSLSFLRYARLLLYKRNYAIANVDIIVIAEVPKISPIREEIVRNISSALGISESQVSLKGKTHEQLGPVGQKKAIECFANALLIRKQS", "soluble on expression in E. coli": "soluble"},
      {"sequence": "MGSDKIHHHHHHMSQPLFPVVEVPDFISEDSQYDTQYKRSMKWNTELGDFVRDGAHRIKECDGKEAFAIWCFKIAQTERYRCLAYPDSIGTEMERAMDNDDEKTVESMVERTITDAIMVNPRAENVRDFQFTWEGDQMHVTFKVKGSNWDEEIEISL", "soluble on expression in E. coli": "not soluble"},
      {"sequence": "MGHHHHHHSHMFGCLVAGRLVQTAAQQVAEDKFVFDLPDYESINHVVVLMLGTIPFPEGMGGSVYFSYPDSMDASMALLGFVTNGKPSAIFKISGLKSGEGSQHPFGAMNIVRTPSVAQIGISVELLDSMAQQTPVGNAAVSSVDSFTQFTQKMLDNFYNFASSFAVSQAQMTPSPSEMFIPANVVLKWYENFQRRLAQNPLFWKT", "soluble on expression in E. coli": "not soluble"},
      {"sequence": "MRAIDLNSDLGESFGAWSMGDDAAMLDIVTSANVACGFHAGDPAGILRTLKAAAAKNVTIGAHVSYPDKVGFGRRNMDVASDELTADVIYQIGSLQGLAKAAGTSVRYVKPHGALYNTIAHDRRQAMAVIEAIRAIDPALVLVALAGSTLIELARSEGLQCIAEAFADRAYTPQGTLVSRREPGAVLHDPELVAQRMLRLVQSGSIEAIDGSLVRIEADSICVHGDSPAAVEMARELRRVLEQASTSLQPFAGKRS", "soluble on expression in E. coli": "soluble"},
      {"sequence": "MRRLLLTLILAATLLGCSQAPQEKLKVGILPIEDSLPIVVADEQGFFKKHGLDVEVIQFSSAVERDAALTAGEVDAVITDPLAVILLRDKGYDVRIASLCLGKTPKEGVFAILAAPNSDIDSVEDLDGKEIAVSLNTIIEYALDVMLSEYGLNYTKISIPKIPIRMQALLNGNVETAVLPEPLASYAVSKGAKLILSDAMLNESITQTVIVFRGDVDDEKVQKFLEAYREAVREINANKEKYREKFIEIARVPENIAGSYPIPDYPEPQQLPKEYYDRYLEWAMQRGLIEKPVPYEEAIR", "soluble on expression in E. coli": "not soluble"},
      {"sequence": "MSQFTLYKNKDKSSAKTYPYFVDVQSDLLDNLNTRLVIPLTPIELLDKKAPSHLCPTIHIDEGDFIMLTQQMTSVPVKILSEPVNELSTFRNEIIAAIDFLITGI", "soluble on expression in E. coli": "soluble"},
      {"sequence": "GAMGPVDEQWIEILRIQALCARYCLTINTQDGEGWAGCFTEDGAFEFDGWVIRGRPALREYADAHARVVRGRHLTTDLLYEVDGDVATGRSASVVTLATAAGYKILGSGEYQDRLIKQDGQWRIAYRRLRNDRLVSDPSVAVNVADADVAAVVGHLLAAARRLGTQMSDT", "soluble on expression in E. coli": "soluble"},
      {"sequence": "MAPSCLKMAHMRLLLTSFGHDHIRDFVRGTVAYIPDATRLFADSPEAAPFMETERNMLREHGLSIRELPISTSTPEEVDRVLGEVDGVYVAGGETFDLMWLLRSTGNDEVLIKHVRAGLPYIGTSAGAVIAGPSIEPISFLDSPDVAPNLSDYSGLGLCEHVVVPHAGGTIPQFPIDVFAETVRTYGAEFPLVLLKDGQALLIDDHGVHLILEHHHHHH", "soluble on expression in E. coli": "soluble"},
      {"sequence": "MGFTTVAKEEKVTKVAEVFHSVAAKYDIMNDLMSGGIHRLWKRFTIDCSGARPGQRILDLGGGTGDLTAKFSRIVGDQGHVVLADINNSMLNVGRDKLRDNGIVGNVHYVQANAEELPFPDDYFDVITISFCLRNVTDKDKALRSMFRVLKPGGRLLVLEFSKPVLEPLSKVYDAYSFHLLPKMGELVANDAESYRYLAESIRMHPDQETLEGMMQDAGFENTKYYNLTGGIVALHRGLEHHHHHH", "soluble on expression in E. coli": "not soluble"},
      {"sequence": "MLPSAPAPLAHFLLFLHLIHSARPEDGVPIETIHAPMFEDVFDVRIHEGADKGSRLTMSQDLQKSTEPLGHCFGQLETDVDWIEWKSSRSAFYTTAQMPISATKNSNNLVGSLHLLCAGNQMHTFPFRVHITHRNHHPPTFSKNSFKFHVPTTLPIGSVITTLEVKDQDPVIYNSERRLAFTKDEPLVDILQDGTLKLKSDLSILTPYTPQRMQILAIDYGSPQLFTIANITLIPVTVSMVRELHVNVATEEYQIFEWEHPQYGTVDKYRLGIRRDDQVVYEEELEAAKTLALTKIMLSNSMNVSFQVTAIDENGETSSEWTQIGPIDRDVICKGECSRGGTPLCYVGAFNRVEQFIDARGAHCLCYPGFMGVSCETIGSMWTLTTLDVFVDLIRAMANKLNSIECSQIAI", "soluble on expression in E. coli": "not soluble"},
      {"sequence": "MSLKMIISYGMPKSASTFAWLVIKKICLNSRLDDVVDLSTAAKGNDSVEDYIDGSVKVNAAQITREVGERCCVIKTHSSAVHFRTLVGGSAFFLPFAQHRDPRDVALSLMDHARRSRELGIADYADCLSIEGCLPVIDSSIENFIEWVDQYSAIPISYDYLCFNGLACLSFIASALDCDVDCAAILKGFERKESIAQFNKGIRHRWVDEMPQAQARMLFRRYEEYYDRFGAEGHHHHHH", "soluble on expression in E. coli": "not soluble"},
      {"sequence": "ICTTICPYGRLQGVLLDKNSINVAYDYIRGERRGHLKRGEDREIAGKGDCIDCHQCVHVCPTGIDIRNGVQMECINCTACIDEC", "soluble on expression in E. coli": "not soluble"},
      {"sequence": "MNDSIDDDFPPEPRGRCYTWPMQQYIYQESSATIPHHHLNQHNNPYHPMHPHHQLPHMQQLPQPLLNLNMTTLTSSGSSVASSIGGGAQCSPCASGSSTAATNSSQQQQTVGQMLAASVPCSSSGMTLGMSLNLSQGGGPMPAKKKRCRKKPTDQLAQKKPNPWGEESYSDIIAKALESAPDGRLKLNEIYQWFSDNIPYFGERSSPEEAAGWKNSIRHNLSLHSRFMRIQNEGAGKSSWWVINPDAKPGRNPRRTRERSNTIETTTKAQLEKSRRGAKKRIKERALMGSLHSTLNGNSIAGSIQTISHDLYDDDSMQGAFDNVPSSFRPRTQSNLSIPGSSSRVSPAIGSDIYDDLEFPSWVGESVPAIPSDIVDRTDQMRIDATTHIGGVQIKQESKPIKTEPIAPPPSYHELNSVRGSCAQNPLLRNPIVPSTNFKPMPLPGAYGNYQNGGITPINWLSTSNSSPLPGIQSCGIVAAQHTVASSSALPIDLENLTLPDQPLMDTMDVDALIRHELSQAGGQHIHFDL", "soluble on expression in E. coli": "not soluble"},
      {"sequence": "MAARHHAFILAGTGSGCGKTTVTLGLLRLLQKRALRVQPFKVGPDYLDTGWHTAICGVASRNLDSFMLPPPVLNALFCEQMRQADIAVIEGVMGLYDGYGVDPNYCSTAAMAKQLGCPVILLVDGKAVSTSLAATVMGFQHFDPTLNLAGVIVNRVTSDAHYQLLKNAIEHYCSLPVLGYVPPCDGVALPERHLGLITARESLVNQQSWHDFAATLEQTVDVDALLSLSVLSALPAGMWPERPDNTAGAGLTLALADDEAFNFYYPDNIDLLERAGVNIVRFSPLHDRALPDCQMIWLGGGYPELYAADLAANTVMLKHLRAAHQRGVAIYAECGGLMYLGSTLEDSGGEIHQMANIIPGHSKMGKRLTRFGYCEAQAMQPTLLAAPGEIVRGHEFHYSDFIPETPAVMACRKVRDGRVLQEWTGGWQTGNTFASYLHVHFAQRPEMLQHWLAAARRVL", "soluble on expression in E. coli": "not soluble"},
      {"sequence": "MGSDKIHHHHHHMMSGHNKWANIKHRKMAQDAKKSKIFTKLIREIIVAAREGGGNIETNPRLRAAVERARAENMPKENIERAIKRGTGELEGVDYQEVIYEGYAPGGVAVYIRALTDNKNRTAQELRHLFNKYGGSLAESGSVSWIFERKGVIEISRDKVKDLEELMMIAIDAGAEDIKDAEDPIQIITAPENLSEVKSKLEEAGYEVEAKVTFIPKNTVKVTGKDAEKVLEFLNALEDMDDVQEVYSNFEMDDKEMEEILSRLEG", "soluble on expression in E. coli": "not soluble"},
      {"sequence": "MKRDQLKSLLLGAILLAGITLPAKAQIGEQRHNFAIGINGGANYSTVSFQPTIKQNGLLGITGGVTARYISEKYFAMICGAQLELNFSQRGWDEKFDPEQGFSSEDSYVRTMNYLEIPFLAHLAFGKDKGVQFFVNLGPQIGLLLNESEKRKGTWETANRAPNEQYGKWVENKFDYGIVGGGGIEVRTKAGNFLLEGRYYFGLADFYNSTKKDYFSRSANSTITAKITYLFDIKK", "soluble on expression in E. coli": "not soluble"}
    ]}
  ]
}
